From patent US20030170653A1, “Biological method for the production of tuliposide A and its intermediates” (priority 2001, published 2003)

B1: Gad3del/pNW12: glutamate decarboxylase homolog from Alstroemeria with in-frame deletion (SEQ ID NO: 4), N-terminal His-tag fusion from vector pNW12 (protein)
chain: MALSSVVSDSNNQVQCTYASRYVRDEAPGFRMPEKSIPKEAAFTMINDELMLDGNPRLNLASFVTTWMEPECDRLMMSTINKNYALMDDYPVTIDIQNRCVNMIANLFNAPIGEGETTVGCATVGSSEAMMLAGLAFKRNWQNKRKAEGKPYDKPNMVTGSNVQVCWVKFAKYFEVEMKKVNLREGYYVMDPEKAVEMVDENTICVAAILGSTLTGEFEDVKLLNDLLVEKNKKTGWDTPIHVDAAIGGFIAPFIYPELEWDFRLPLVKSINVSGHKYGLVYPGVGWVVWRNKNDLPEELIFHINYLGIDQPTFTLNFSKGSNQIIGQYYQLIRLGFEGYKNIMENCTENARILREHLEEMGVFEIISKDIGAPLVTIALKDSSKHSVFKIADTIRRFGWTIPAYTMPKDVEHIAVLRVVIREDFSRSLAERLANDMKKVLVELDIHPSRTTTIAHVKAVENGNGNYVIKKSIVENGNGEHVIKKSIGENGNGKHAIKNCRDAVIANAA
modifications: N-terminal His-tag; Alstroemeria
B2: gad3chim: chimeric glutamate decarboxylase homolog from Alstroemeria (SEQ ID NO: 6), N-terminal His-tag fusion from vector pNW9 (protein)
chain: MALSSVVSDSNNQVQCTYASRYVRDEAPGFRMPEKSIPKEAAFTMINDELMLDGNPRLNLASFVTTWMEPECDRLMMSTINKNYALMDDYPVTIDIQNRCVNMIANLFNAPIGEGETTVGCATVGSSEAMMLAGLAFKRNWQNKRKAEGKPYDKPNMVTGSNVQVCWVKFAKYFEVEMKKVNLREGYYVMDPEKAVEMVDENTICVAAILGSTLTGEFEDVKLLNDLLVEKNKKTGWDTPIHVDAAIGGFIAPFIYPELEWDFRLPLVKSINVSGHKYGLVYPGVGWVVWRNKNDLPEELIFHINYLGIDQPTFTLNFSKGSNQIIGQYYQLIRLGFEGYKNIMENCTENARILREHLEEMGVFEIISKDIGAPLVTIALKDSSKHSVFKIADTIRRFGWTIPAYTMPKDVEHIAVLRVVIREDFSRSLAERLANDMKKVLVELDIHPSRTTTIAHVKAVENGNGNYVIKKSIVENGNGEHVIKKSIGENGNGKHAIKNEHVIKKSIGENFNGKHAIKNCRDAVIANAA
modifications: N-terminal His-tag; Alstroemeria
B3: Gad2/pNW2: glutamate decarboxylase homolog from Alstroemeria (SEQ ID NO: 2), expressed in E. coli from vector pNW2, crude protein (protein)
chain: MVLSSAVSDNTGPVHCTFASRYVRDAPARFRMPENSIPKDTAYQIVNDELMLDGNPRLNLASFVTTWMEPECDRLMIAAANKNYVDMDEYPVTTELQNRCVNIIAHLFNAPIGDEETAVGVGTVGSSEAIMLAGLAFKRKWQNKKKAEGKPYDKPNIVTGANVQVCWEKFARYFEVELKEVKLREGYYIMDPEKAVEMVDENTICVAAILGSTLTGEFEDVKLLNKLLEEKNKETGWDTPIHVDAASGGFIAPFLYPELEWDFRLPLVKSINVSGHKYGLVYAGVGWVVWRNKEDLPEELIFHINYLGADQPTFTLNFSKGSSQIIAQYYQFIRLGFQGYKNIMENCMENTRILREGLQETGRFEIVSKDIGVPLVAFALKDSSQYTVFEIADAMRRFGWIIPAYTMPKDAEHIAVLRVVIREDFSRSLAERLVNDMKKVLAELDVLPSRITTIAHVTAVENDNGEAVIKKSFLEIEKKVITHWKDVVMNGKKTNKVC
modifications: Alstroemeria

What was measured:
[1] = Decarboxylase enzyme activity of E. coli extracts, substrate D,L-γ-methyleneglutamate (HPLC of FMOC derivatives); assay type: biochemical; settings: for Rate for each substrate: γ-methyleneglutamate (2): crude protein, 20 mM D,L-γ-methyleneglutamate, pH 5.8, room temperature; for enzyme activity against D,L-γ-methyleneglutamate compared with L-glutamate: proteins from expressing cells
Experimental: (§1) Chemically competent BL21 (DE3) cells (Novagen) were transformed with pNW2, pNW12 and pNW9, as well as with plasmids pET28a and pET29a. An isolated colony of freshly transformed cells was inoculated into 2 mL of LB containing kanamycin (50 μg/mL) and the culture grown overnight at 37° C. Cultures were transferred to 250 mL of LB containing kanamycin (50 μg/mL) and grown at 22° C. to OD 0.6-1.0, at which point they were induced with IPTG (0.1 mM). Induced cells were grown for an additional 14 h and harvested by centrifugation at 10,000× g.
(§2) Cells were resuspended in 5 mL of extraction buffer (50 mM Tris-HCl, pH 7.5, 0.2 mM EDTA, 10% glycerol, 1 mM DTT and 1 mM fresh AEBSF) and disrupted by two passes through a French press cell (12,000 psi). Soluble protein extracts were obtained from the supernatant fraction after centrifugation at 10,000× g for 10 min. Protein concentrations were determined using a Bradford reagent (Bio-Rad) (Bradford, Anal. Biochem. 72:248-254 (1976)).
(§3) Enzyme activity was determined using a method similar to that of Snedden et al. (J. Biol. Chem. 271:4148-4153 (1996)) and Turano et al. (Plant Physiol. 117:1141-1421 (1998)). Assays were carried out in a volume of 200 μL with 200 mM pyridine-HCl, pH 5.8, 10 mM NaCl, 0.1 mM PLP, 20 mM L-glutamate or D,L-γ-methyleneglutamate, and 20 to 50 uL of enzyme extract. The reactions were incubated at room temperature and 50 μL aliquots were removed at various times. Ethanol (100 μL) was added to terminate the reaction and precipitate the proteins. Samples were centrifuged at 10,000× g for 10 min. The supernatants were transferred to a fresh tube and dried under vacuum after which they were dissolved in 500 μL of borate buffer (400 mM, pH 10). For HPLC analysis, 20 μL of the sample was derivatized by mixing with 20 μL of FMOC ((9-fluorenylmethoxycarbonyl)). FMOC-derivatized samples were separated on a Novapak C18 column (3.9×150 mm, Waters) using an Alliance 2690 HPLC with a 9600 PDA detector (Waters). Samples were injected (16 μL) and separated with a gradient of Buffer A (40 mM NaPO4, pH 7.8) to Buffer B (methanol:acetonitrile:water/45:45:10). Assay products were FMOC-derivatized and quantified by comparison with standards. In each experiment, enzyme activity determinations were performed in triplicate. Proteins from Escherichia coli expressing empty vectors pET28a and pET29a were used as controls.

[2] = Decarboxylase enzyme activity of E. coli extracts, substrate L-glutamate (HPLC of FMOC derivatives); assay type: biochemical; settings: for Rate for each substrate: Glutamate (1): crude protein, 20 mM L-glutamate, pH 5.8, room temperature; for Ratio (½): rate with glutamate (1) over rate with γ-methyleneglutamate (2)
Experimental: as §1, §2, §3

| Molecule | Rate for each substrate: γ-methyleneglutamate (2) [1] [μmol/min^−1/mg^−1] | enzyme activity against D,L-γ-methyleneglutamate compared with L-glutamate [1] | Rate for each substrate: Glutamate (1) [2] [μmol/min^−1/mg^−1] | Ratio (½) [2] | enzyme activity with L-glutamate compared with D,L-γ-methyleneglutamate as substrate ([2]; proteins from expressing cells) |
| --- | --- | --- | --- | --- | --- |
| B1 | 12.4 | much higher | 7.0 | 0.56 | – |
| B2 | – | much higher | – | – | – |
| B3 | 0.8 | – | 12.0 | 16 | sixteen times higher |
